The target in this assay is anti-Fas monoclonal antibody HFE7A produced by mouse-mouse hybridoma HFE7A (FERM BP-5828). Nature of the assay: peptide competition: 200 μg peptide preincubated with 0.25 μg HFE7A, then flow cytometry on WR19L12a cells. A general note: A flow cytometer gives signals particle by particle.

With KCRCKPNFFC [P110], the inhibition of the binding of HFE7A to WR19L12a cells is 60%. For EINCTRTQNT [P100] the value was 50%.

The record behind these values is JP2004000228A.
